# Laboratory results from PMC4223295, “Crystal Structure of the Bacillus subtilis Phosphodiesterase PhoD Reveals an Iron and Calcium-containing Active Site” (The Journal of Biological Chemistry, 2014).
# B1: PhoD (mPhoD) (Bacillus subtilis subsp. subtilis str. 168) (protein)
# chain: APNFSSYPFTLGVASGDPLSDSVVLWTRLAPDPLNGGGMPKQAVPVKWEVAKDEHFRKIVRKGTEMAKPSLAHSVHVEADGLEPNKVYYYRFKTGHELSPVGKTKTLPAPGANVPQMTFAFASCQQYEHGYYTAYKHMAKEKLDLVFHLGDYIYEYGPNEYVSKTGNVRTHNSAEIITLQDYRNRHAQYRSDANLKAAHAAFPWVVTWDDHEVENNYANKIPEKGQSVEAFVLRRAAAYQAYYEHMPLRISSLPNGPDMQLYRHFTYGNLASFNVLDTRQYRDDQANNDGNKPPSDESRNPNRTLLGKEQEQWLFNNLGSSTAHWNVLAQQIFFAKWNFGTSASPIYSMDSWDGYPAQRERVINFIKSKNLNNVVVLTGDVHASWASNLHVDFEKTSSKIFGAEFVGTSITSGGNGADKRADTDQILKENPHIQFFNDYRGYVRCTVTPHQWKADYRVMPFVTEPGAAISTRASFVYQKDQTGLRKVSSTTIQGGVKQSDEVEEDRFFSHNKAHEKQMIKKRAKITN
# notes: mature domain, signal peptide removed; N-terminal Strep-SUMO tag cleaved by Ulp1; E. coli BL21(DE3) cytoplasm
# Tests used:
# PhoD (mPhoD) = molecular target: T1, PhoD (mPhoD) (Bacillus subtilis, UniProt P42251); conditions: crystallised at pH 5.6 with phosphate; active site, coordinates Fe3+ and two Ca2+ ions; proposed product complex
# T1 sequence (P42251 57-583): B1 chain
# purified protein = substrate: O=[N+]([O-])c1ccc(OP(=O)(O)O)cc1; assay: purified protein; format: biochemical, Bacillus subtilis; conditions: pH 8.0, 25 °C, 100 mM Tris-HCl, 2 mM CaCl2, Ca2+-supplemented enzyme
Molecule,"X-ray crystal structure, 2 Å (PhoD (mPhoD))",Km (purified protein) [µM],kcat (purified protein) [s⁻¹]
O=P(O)(O)O [phosphate],the structure contains a phosphate molecule bound at the active site,,
B1,,50,1.2
